The text below walks through data of publication PMC4622731 (mAbs, 2015).

The term EC50 denotes the concentration at which the effect is half-maximal. A lower EC50 goes with greater potency. The Kd is the free concentration of one partner at which half of the binding sites on the other are occupied at equilibrium, for simple one-to-one binding. A high value points to a looser complex.

The target of assay [1] is cynomolgus IL-1β (Macaca fascicularis) (UniProt P79182).
For assay [2], the target named is human IL-1α (human) (UniProt P01583).
For assay [3], the target named is human IL-1β (human) (UniProt P01584).
In assay [4] the target is cynomolgus IL-1α (Macaca fascicularis) (UniProt P79340).
The target of assay [5] is cynomolgus IL-1β (Macaca fascicularis) (UniProt P79182). This is another data set of the same source.
For assay [6], the target named is human IL-1α (human) (UniProt P01583). This is another data set of the same source.
Assay [7] has as its target human IL-1β (human) (UniProt P01584). The source holds these as a separate data set.
In assay [8] the target is cynomolgus IL-1α (Macaca fascicularis) (UniProt P79340). The source holds these as a separate data set.
Assay [9] concerns the target biotinylated human IL-1β (Homo sapiens) (UniProt P01584). Kind of assay: ELISA; mAb or DVD-Ig (2 μg/mL) captured by anti-human Fc antibody coated on the plate; biotinylated human IL-1α or IL-1β titrated 1000 ng/mL to 0.597 pg/mL, 1 hour at 25°C; peroxidase-labeled streptavidin. A general note: An ELISA detects its analyte on a solid surface through an enzyme-linked reagent.

The target in assay [10] is biotinylated human IL-1α (Homo sapiens) (UniProt P01583). The description is as above.
In assay [11] the target is cynomolgus IL-1β (Macaca fascicularis) (UniProt P79182). As to the kind of experiment: SPR; Biacore 3000; mAb or DVD-Ig captured by goat anti-human IgG Fc on a CM5 chip; IL-1 10-200 nM flowed at 25 μL/min; HBS-EP (10 mM HEPES pH 7.4, 150 mM NaCl, 3 mM EDTA, 0.005% P20), 25°C; 1:1 Langmuir global fit, KD = koff/kon. In general terms: In SPR one partner is held on a chip, and binding of the other changes the refractive index at the surface.

The target of assay [12] is human IL-1α (human) (UniProt P01583). The description is as above.
Assay [13] deals with human IL-1β (human) (UniProt P01584). The assay is described as above.
The target of assay [14] is cynomolgus IL-1α (Macaca fascicularis) (UniProt P79340). The assay is described as above.
Assay [15] addresses T1, human IL-1β (Homo sapiens, UniProt P01584).
T1 construct: interleukin-1 beta, human, recombinant; also called recombinant human IL-1β; source: recombinant, AbbVie
Described as above. As to conditions: both partners purified.

Assay [16] addresses T1, human IL-1β. Kind of assay: cell-based or functional assay.

Chain of cynomolgus IL-1α (Macaca fascicularis) (P79340 whole entry): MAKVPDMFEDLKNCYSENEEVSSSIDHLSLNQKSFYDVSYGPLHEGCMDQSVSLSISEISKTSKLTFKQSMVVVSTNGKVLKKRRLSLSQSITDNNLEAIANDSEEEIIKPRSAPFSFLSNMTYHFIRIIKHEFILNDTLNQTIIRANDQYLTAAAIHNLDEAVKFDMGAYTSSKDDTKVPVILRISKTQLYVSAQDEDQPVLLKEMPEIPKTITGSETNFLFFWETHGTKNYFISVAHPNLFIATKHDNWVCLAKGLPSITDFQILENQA
Chain of human IL-1β (human) (P01584 whole entry): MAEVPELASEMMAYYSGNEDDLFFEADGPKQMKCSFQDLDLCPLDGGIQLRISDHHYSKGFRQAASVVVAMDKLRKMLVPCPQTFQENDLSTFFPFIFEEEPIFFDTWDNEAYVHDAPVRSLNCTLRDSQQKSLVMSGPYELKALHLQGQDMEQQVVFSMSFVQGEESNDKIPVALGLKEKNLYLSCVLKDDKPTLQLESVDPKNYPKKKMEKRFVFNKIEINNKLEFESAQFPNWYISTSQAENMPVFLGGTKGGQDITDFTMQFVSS
Chain of cynomolgus IL-1β (Macaca fascicularis) (P79182 whole entry): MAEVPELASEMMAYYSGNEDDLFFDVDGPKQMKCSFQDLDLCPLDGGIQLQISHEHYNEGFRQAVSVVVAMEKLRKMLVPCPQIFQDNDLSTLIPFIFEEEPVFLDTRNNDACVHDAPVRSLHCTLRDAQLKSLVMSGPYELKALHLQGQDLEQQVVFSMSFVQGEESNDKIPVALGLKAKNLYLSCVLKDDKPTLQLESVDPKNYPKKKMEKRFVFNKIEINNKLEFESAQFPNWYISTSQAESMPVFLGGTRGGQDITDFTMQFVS
Chain of human IL-1α (human) (P01583 whole entry): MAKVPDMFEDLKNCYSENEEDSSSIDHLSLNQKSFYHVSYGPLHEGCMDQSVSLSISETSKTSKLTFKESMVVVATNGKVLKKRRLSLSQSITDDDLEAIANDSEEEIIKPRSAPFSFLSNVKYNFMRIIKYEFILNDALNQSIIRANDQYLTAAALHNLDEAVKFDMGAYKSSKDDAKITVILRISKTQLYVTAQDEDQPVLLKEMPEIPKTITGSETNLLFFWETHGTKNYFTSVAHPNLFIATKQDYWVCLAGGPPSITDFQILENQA
T1 sequence (P01584 whole entry): as the sequence (P01584 whole entry) above

Consider ABT-981 (bispecific antibody), for which the Neutralization potency IC50, MRC-5 cell bioassay: IL-8 release on 3 pM cynomolgus IL-1β in assay [1] came to 8.4 pM. In the assay with human IL-1α (human) [2], this molecule displayed a Neutralization potency IC50, MRC-5 cell bioassay: IL-8 release on 3 pM human IL-1α of 16.2 pM. This molecule registered a Neutralization potency IC50, MRC-5 cell bioassay: IL-8 release on 3 pM human IL-1β with human IL-1β (human) [3] of 16 pM. Moreover, in [4], the Neutralization potency IC50, MRC-5 cell bioassay: IL-8 release on 3 pM cynomolgus IL-1α was 955 pM. In assay [5], this molecule gave an ED50, Average: dose of ABT-981 inhibiting mouse IL-6 induced by 30 ng cynomolgus IL-1β in C57/BL6 mice of 0.004 mg/kg; an ED50, Expt #1: dose of ABT-981 inhibiting mouse IL-6 induced by 30 ng cynomolgus IL-1β in C57/BL6 mice of 0.002 mg/kg; an ED50, Expt #2: dose of ABT-981 inhibiting mouse IL-6 induced by 30 ng cynomolgus IL-1β in C57/BL6 mice of 0.006 mg/kg; an ED80, Average: dose of ABT-981 inhibiting mouse IL-6 induced by 30 ng cynomolgus IL-1β in C57/BL6 mice of 0.094 mg/kg. In assay [5], this molecule gave an ED80, Expt #1: dose of ABT-981 inhibiting mouse IL-6 induced by 30 ng cynomolgus IL-1β in C57/BL6 mice of 0.098 mg/kg and an ED80, Expt #2: dose of ABT-981 inhibiting mouse IL-6 induced by 30 ng cynomolgus IL-1β in C57/BL6 mice of 0.11 mg/kg. In the assay with human IL-1α (human) [6], this molecule came in with an ED50, Average: dose of ABT-981 inhibiting mouse IL-6 induced by 30 ng human IL-1α in C57/BL6 mice of 0.005 mg/kg; an ED50, Expt #1: dose of ABT-981 inhibiting mouse IL-6 induced by 30 ng human IL-1α in C57/BL6 mice of 0.007 mg/kg; an ED50, Expt #2: dose of ABT-981 inhibiting mouse IL-6 induced by 30 ng human IL-1α in C57/BL6 mice of 0.002 mg/kg; an ED80, Average: dose of ABT-981 inhibiting mouse IL-6 induced by 30 ng human IL-1α in C57/BL6 mice of 0.104 mg/kg. In the assay with human IL-1α (human) [6], this molecule showed an ED80, Expt #1: dose of ABT-981 inhibiting mouse IL-6 induced by 30 ng human IL-1α in C57/BL6 mice of 0.17 mg/kg and an ED80, Expt #2: dose of ABT-981 inhibiting mouse IL-6 induced by 30 ng human IL-1α in C57/BL6 mice of 0.04 mg/kg. Further, in the assay with human IL-1β (human) [7], the ED50, Average: dose of ABT-981 inhibiting mouse IL-6 induced by 30 ng human IL-1β in C57/BL6 mice came out at 0.016 mg/kg; the ED50, Expt #1: dose of ABT-981 inhibiting mouse IL-6 induced by 30 ng human IL-1β in C57/BL6 mice stood at 0.02 mg/kg; the ED50, Expt #2: dose of ABT-981 inhibiting mouse IL-6 induced by 30 ng human IL-1β in C57/BL6 mice is 0.012 mg/kg; the ED80, Average: dose of ABT-981 inhibiting mouse IL-6 induced by 30 ng human IL-1β in C57/BL6 mice was 0.28 mg/kg. In the assay with human IL-1β (human) [7], the ED80, Expt #1: dose of ABT-981 inhibiting mouse IL-6 induced by 30 ng human IL-1β in C57/BL6 mice was found to be 0.27 mg/kg and the ED80, Expt #2: dose of ABT-981 inhibiting mouse IL-6 induced by 30 ng human IL-1β in C57/BL6 mice was 0.32 mg/kg. In [8], this molecule had an ED50, Average: dose of ABT-981 inhibiting mouse IL-6 induced by 30 ng cynomolgus IL-1α in C57/BL6 mice of 6.5 mg/kg; an ED50, Expt #1: dose of ABT-981 inhibiting mouse IL-6 induced by 30 ng cynomolgus IL-1α in C57/BL6 mice of 5.2 mg/kg; an ED50, Expt #2: dose of ABT-981 inhibiting mouse IL-6 induced by 30 ng cynomolgus IL-1α in C57/BL6 mice of 7.7 mg/kg; an ED80, Average: dose of ABT-981 inhibiting mouse IL-6 induced by 30 ng cynomolgus IL-1α in C57/BL6 mice of 18.2 mg/kg. In assay [8], this molecule yielded an ED80, Expt #1: dose of ABT-981 inhibiting mouse IL-6 induced by 30 ng cynomolgus IL-1α in C57/BL6 mice of 16.1 mg/kg and an ED80, Expt #2: dose of ABT-981 inhibiting mouse IL-6 induced by 30 ng cynomolgus IL-1α in C57/BL6 mice of 20.2 mg/kg. In assay [9], this molecule showed an EC50 of 7.5 pM. This molecule registered an EC50 in assay [10] of 6.4 pM. The molecule further came in with an equilibrium dissociation constant (Kd) in [11] of 15.3 pM. In the assay with human IL-1α (human) [12], this molecule displayed a Kd of 7.6 pM. The Kd with human IL-1β (human) [13] is 21 pM. In [14], the Kd is 411 pM.

B1: humanized SK48-E26 mAb (antibody, V domains shown)
VH: EVQLVESGGGVVQPGRSLRLSCSSSGFIFSSYDMSWVRQAPGKGLEWVAYISSGGGGTYYPDTVKGRFTISRDNSKNTLFLQMDSLRPEDTGVYFCARGGVTKGYFDVWGQGTPVTVSS
VL: DIQMTQSPSSLSASVGDRVTITCRASGNIHNYLTWYQQTPGKAPKLLIYNAKTLADGVPSRFSGSGSGTDYTFTISSLQPEDIATYYCQHFWSIPYTFGQGTKLQIT
Molecule B1 displayed a Kd with human IL-1β [15] of 242 pM. Further, the “Neutralization potency IC50, MRC-5 cell bioassay: IL-8 release on 3 pM human IL-1β” value with human IL-1β [16] was 400 pM.
